{
  "source": "patent US20190374567A1",
  "about": "“Reverse Transcriptase Dependent Conversion of RNA Templates Into DNA” (priority 2016, published 2019)",
  "molecules": {"B1": {"name": "EGFP-WT: 2.2 kb wild type eGFP transcript (RNA template synthesized with plasmid pAFTAB) (nucleic acid)", "DNA": "TTGGCCACTCCCTCTCTGCGCGCTCGCTCGCTCACTGAGGCCGCCCGGGCAAAGCCCGGGCGTCGGGCGACCTTTGGTCGCCCGGCCTCAGTGAGCGAGCGAGCGCGCAGAGAGGGAGTGGCCAA", "modifications": "chemistry not fully specified; the letters are possibly those of the target site"}},
  "key": {"Superscript III": {"system": "Superscript III", "assay": "RT-PCR of 2.2 kb eGFP transcript with Superscript III", "assay_type": "biochemical", "settings": "1.5 μg RNA", "text": "(§1) Samples were DNase treated using the Qiagen RNase-Free DNase Set (Qiagen Catalog #79254) followed by purification using the Qiagen RNeasy Mini Kit (Qiagen Catalog #74104) and manufacturer's instructions. To eliminate potential gDNA contamination, each RNA sample was DNase treated four times.\n(§2) cDNA was generated using Invitrogen's SuperScript III First-Strand Synthesis System for RT-PCR (Invitrogen Catalog #18080-051) or a recombinant HIV Reverse Transcriptase (HIV RT, Worthington Biochemical Corporation Catalog #LS05003). All reactions received 2 μl 10 RT reaction buffer, 4 μl 25 mM MgCl2, 2 μl 0.1 M DTT, 1 μl 10 mM dNTPs, and 2 μM primer (8 μM when Phosphorothioate Primer used). For reactions using Superscript III, 200 U enzyme was used. Reactions using HIV RT contained 10 U enzyme. Different concentrations of RNA template were used, ranging from 1.5 to 5 μg/reaction. Table 21. No-RT and no-template controls were set up during reverse transcription. Reactions using Superscript III enzyme were incubated at 65° C. for 5 minutes, 50° C. for 60 minutes, and 85° C. for 5 minutes. Reactions using HIV RT were incubated at 65° C. for 5 minutes, 37° C. for 60 minutes, and 85° C. for 5 minutes. HIV RT was tested in the presence and absence of beta-thujaplicinol.\n(§3) PCR Analysis: PCR was performed using primers PCR-F2 and PCR-R2. PCR products were resolved using a 1% agarose gel and purified using the QIAquick Gel Extraction Kit (Qiagen Catalog #28704). […]"}, "[1]": {"assay": "mRNA quality check before and after DNase treatment (agarose gel, OD 260/280)", "assay_type": "physicochemical", "method": "The experimental procedure and assay readout for the analysis and removal of the mRNA contamination by plasmidic DNA was as follows: 1) the 4 mRNAs solutions were thawed, aliquoted and stored at −80° C., 2) aliquots of the mRNAs solutions were treated with the DNase as recommended by the manufacturer (Qiagen, cat #79254): four rounds of DNase were successively performed, 3) following the DNase digestion, the mRNAs were purified on columns as recommended by the manufacturer (Qiagen, RNeasy Elute), 4) the eluates were quantified and controlled on an Agarose gel, 5) a PCR amplification reaction was performed to evaluate the DNA contamination of the mRNA solutions before and after the DNase treatment.\nTimeline of mRNAs solutions control and DNA digestion. mRNA solutions are thawed and digested with DNase. The solutions are purified on a column. The mRNA is quantified and quality control on an agarose gel is performed after purification. A PCR reaction of the mRNA aliquots is performed on aliquots from before and after purification."}, "[2]": {"biological_target": "T1, HIV Reverse Transcriptase (Human immunodeficiency virus type 1 group M subtype B, UniProt P04585)", "T1 construct": "a recombinant HIV Reverse Transcriptase; purchased Worthington Biochemical Corporation LS05003", "assay": "RT-PCR of 2.2 kb eGFP transcript with HIV RT, with or without beta-thujaplicinol", "assay_type": "biochemical", "text": "as §1, §2, §3"}, "[3]": {"assay": "Sequence analysis of RT-PCR product against reference sequence", "settings": "SV40 DNA primer and HIV RT used in cDNA generation", "method": "Sequence Analysis: Sequencing was performed using BigDye Terminator Cycle Sequencing. Data analysis was performed by GENEWIZ with DNASTAR Lasergene software. FIG. 34 (SEQ ID NO.: 23) depicts the WT eGFP Consensus sequence (2,225 bp); SV40 DNA primer and HIV RT used in cDNA generation. FIG. 35 (SEQ ID NO.: 24) depicts the Alpha-Thio-Uridine eGFP Consensus (2,225 bp); SV40 RNA primer and Superscript used in cDNA generation."}},
  "data": [
    {"molecule": "B1", "values": [
      {"measurement": "2.2 kb fragment of interest in PCR from RT reaction", "setting": "Superscript III; PBS RNA primer", "value": "present"},
      {"measurement": "2.2 kb fragment of interest in PCR from RT reaction", "setting": "Superscript III; PCR-R2 primer", "value": "present"},
      {"measurement": "2.2 kb fragment of interest in PCR from RT reaction", "setting": "Superscript III; SV40 DNA primer", "value": "present"},
      {"measurement": "OD 260/280 Post-treatment", "setting": "[1]; mRNA solution after DNase treatment and column purification", "value": 2.05},
      {"measurement": "OD 260/280 Pre-treatment", "setting": "[1]; mRNA solution before DNase treatment and column purification", "value": 2.07},
      {"measurement": "2.2 kb fragment of interest in PCR from RT reaction", "setting": "[2]; SV40 DNA primer, 1.5 μg RNA, β-Thujaplicinol 0 μM", "value": "present"},
      {"measurement": "2.2 kb fragment of interest in PCR from RT reaction", "setting": "[2]; SV40 DNA primer, 2 μg RNA, β-Thujaplicinol 0 μM", "value": "present"},
      {"measurement": "2.2 kb fragment of interest in PCR from RT reaction", "setting": "[2]; SV40 DNA primer, 2 μg RNA, β-Thujaplicinol 1 μM", "value": "present"},
      {"measurement": "2.2 kb fragment of interest in PCR from RT reaction", "setting": "[2]; SV40 DNA primer, 5 μg RNA, β-Thujaplicinol 0.2 μM", "value": "present"},
      {"measurement": "2.2 kb fragment of interest in PCR from RT reaction", "setting": "[2]; SV40 RNA primer, 1.5 μg RNA, β-Thujaplicinol 0 μM", "value": "present"},
      {"measurement": "2.2 kb fragment of interest in PCR from RT reaction", "setting": "[2]; SV40 RNA primer, 1.5 μg RNA, β-Thujaplicinol 0.2 μM", "value": "present"},
      {"measurement": "2.2 kb fragment of interest in PCR from RT reaction", "setting": "[2]; SV40 RNA primer, 2 μg RNA, β-Thujaplicinol 1 μM", "value": "present"},
      {"measurement": "consensus sequence match to the reference sequence", "setting": "[3]", "value": 100, "unit": "%"}
    ]}
  ]
}
